These results are taken from the supplement of paper PMC12764529.

± gives the half width of the 95% confidence interval.

The nature of data set [1]: folding stability dG unfold from chymotrypsin proteolysis; higher = more stable. In outline: (§1)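 Sequencing followed digestion of designed mini-proteins with trypsin and chymotrypsin, each at 11 concentrations in threefold dilutions together with a no-protease condition. The mini-proteins were under 80 residues, had no cysteine, sat in a PA-tagged cDNA display construct, and were kept only if AlphaFold2 dimer inter-PAE was above 15. From the counts, Bayesian fitting gave K50, and unfolding free energy was derived against a sequence-predicted unfolded-state K50 and a shared folded-state K50, per protease or combined.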

A short description of data set [2]: folding stability dG unfold (combined trypsin and chymotrypsin); higher = more stable. In outline:
as §1

A short description of data set [3]: folding stability dG unfold from trypsin proteolysis; higher = more stable. The gist of the method:
as §1

As to “SAKVSHLEFSLPNSVVTPEDLLAALEKLGFPPSKIKKMEIVKVKDNSYVVKIYLENEDGSDSIITLHLPSAG [r14_30_TrMRF]”, the figures for the “folding stability dG unfold” value in data set [1], in data set [2] and in data set [3] were 2.39 ± 0.066 kcal/mol, 1.78 ± 0.11 kcal/mol and 0.515 ± 0.078 kcal/mol, respectively.
For “SAKYYFITVEIYMRTGGGPRKMDITVMIPPEEMPPEDVKEIAKEIADWLAEHHPGFEVKVTIIPPDDMKSAG [r14_723_TrROS]”, in that order: 4.07 ± 0.16 kcal/mol, 3.74 ± 0.47 kcal/mol and 2.39 ± 0.092 kcal/mol.
On the same counts, the results for “SALEEEVKKRAEEIAQEIKEKFPNVKEKVVEIELPLPNGTKLKATVTISRSINEKGIEYKIKIEVSEGLSAG [r14_788_JUSTAS]” are 3.99 ± 0.12 kcal/mol, 3.68 ± 0.17 kcal/mol and 3.22 ± 0.081 kcal/mol.
On the same counts, the results for “SALIETAEELARELGVEAELVEIEEGEDVALLRIRLRVDGVPYYFLVRIERPGEDPRIFRVEILEVRPESAG [r14_387_TrMRF]” are 4.302 ± 0.034 kcal/mol, 4.066 ± 0.031 kcal/mol and 3.67 ± 0.071 kcal/mol.
Turning to “SALKGLKITEIKEVTNEDGSKSLVVRVDGYLLVFDLDTKKLTLVPLPPVTVTVTVYEKKADPNKPEYKKKSA [r9_1065_TrROS_Hall]”, the “folding stability dG unfold” value turned out to be 3.15 ± 0.056 kcal/mol in data set [1], 2.77 ± 0.16 kcal/mol in data set [2] and 1.71 ± 0.042 kcal/mol in data set [3].
Turning to “SALKISVTVDPDGPTATATLELYNPETGKPTTLTATIHRLPDGSYLVTIHFPSNNKTITFTVPEDGVITLSA [r9_1220_TrMRF]”, the “folding stability dG unfold” value amounted to 3.48 ± 0.038 kcal/mol in data set [1], 3.03 ± 0.12 kcal/mol in data set [2] and 2.38 ± 0.09 kcal/mol in data set [3].
For “SALPNLKIEITLNEDGTITITVTANGEVIATATLTVTLPPPPVEKEVLDANGNKRTVRYDAKTGKAEVFDSA [r9_343_TrROS_Hall]”, in that order: 0.065 ± 0.29 kcal/mol, 0.0728 ± 0.47 kcal/mol and 0.106 ± 0.17 kcal/mol.
On the same counts, the results for “SALTLEELEKRYPELPSELLEKIKEEAEKVPKDRTLTFLLTAPDGRRVRITVTKPDTVTVTVLPPGVPEASA [r9_1024_JUSTAS]” are 4.12 ± 0.094 kcal/mol, 4.14 ± 0.14 kcal/mol and 4.13 ± 0.3 kcal/mol.
On the same counts, the results for “SALWVIKDTIKPPNGKKRKISIAIPNDGLYVWFNGGSFPIPLKEIKKIMENFPGYQIDDIEIMPLDELKSAG [r14_336_TrROS]” are -0.15 ± 0.53 kcal/mol, 0.448 ± 0.32 kcal/mol and 0.798 ± 0.19 kcal/mol.
On to “SAMDLLRERGYDVEEVTKLRDEVLPNGTIVTLYEVTVRLPDRVITTPIKVSGESEEEAEKLAYETVARESAG [r14_726_JUSTAS]”, for which the “folding stability dG unfold” value is 0.582 ± 0.071 kcal/mol in data set [1], 0.543 ± 0.069 kcal/mol in data set [2] and 0.49 ± 0.031 kcal/mol in data set [3].
On the same counts, the results for “SAMEIEKIEIEKEEVNGKLYYRIRVKIINKETGKEIELELEFKSLEDALEALKKLPNITRVEITEIEPVSAG [r14_464_TrROS_Hall]” are 5.18 ± 0.091 kcal/mol, 4.93 ± 0.093 kcal/mol and 3.55 ± 0.11 kcal/mol.
Consider “SAMEIVIEFESPEEAEKAIKEYVEKKGLKAVEIKMEFEPKWVEEKTPTGVKVTKEKYVAKVTVVTSKELSAG [r14_773_JUSTAS]”, for which the “folding stability dG unfold” value amounted to 2.03 ± 0.095 kcal/mol in data set [1], 1.28 ± 0.32 kcal/mol in data set [2] and 0.457 ± 0.21 kcal/mol in data set [3].
On the same counts, the results for “SAMELSPEERAELLIEAVRRKLEEARKKGIPNKKVKVTIVLSEEEREALAKRIEEELKEEGYEVEIVPESAG [r14_908_TrROS_Hall]” are 2.61 ± 0.13 kcal/mol, 2.29 ± 0.17 kcal/mol and 2.17 ± 0.068 kcal/mol.
For “SAMEVKIEKVEVKDGTVRITVTVKVSEEQLEKVKELAEKLKEKGYEVKVVKVEKLEDGTIKVEIEVKPKSAG [r14_354_TrROS_Hall]”, in that order: 2.36 ± 0.17 kcal/mol, 2.66 ± 0.92 kcal/mol and 2.7 ± 0.32 kcal/mol.
On the same counts, the results for “SAMIEIEAVFPPNVSLEEAVEAVKAEIESKGFEILEVKVEKLPNGEVLVRAVVKVKPEMPPEEIKKLAESAG [r14_110_TrMRF]” are 2.44 ± 0.2 kcal/mol, 2.07 ± 0.19 kcal/mol and 1.5 ± 0.06 kcal/mol.
With “SAMIEIEIEVEEREDGRLIVRVRIRNKETGEEIELELEMSREEVEKLLEELKKLFPNLEIVEVEIRELPSAG [r14_969_TrROS_Hall]”, the “folding stability dG unfold” value in data set [1] worked out at 3.29 ± 0.24 kcal/mol; in data set [2], 3.98 ± 0.45 kcal/mol; in data set [3], 4 ± 0.15 kcal/mol.
Consider “SAMIEILSIEEFTRPDGKKLYKITLKTPDPEKVLEKLIELGVKPEIDPNNPDILIAVFPYEKIEEILKESAG [r14_777_TrMRF]”, for which the “folding stability dG unfold” value in data set [1] was determined as 5.05 ± 0.23 kcal/mol; in data set [2], 4.77 ± 0.31 kcal/mol; in data set [3], 3.12 ± 0.14 kcal/mol.
Regarding “SAMIMIRVEYPNGKTWPIMIPLRTPDGDPTKEEVEEIAERIADEIAEEHGGDNVKIEIQVMPMPPEENPSAG [r14_378_TrROS]”, the “folding stability dG unfold” value in data set [1] is 1.5 ± 0.12 kcal/mol; in data set [2], 1.82 ± 0.24 kcal/mol; in data set [3], 2.23 ± 0.081 kcal/mol.
On the same counts, the results for “SAMIVVEIEESRSPTSPERTVTVTVKKPDGTVVKTIPITVSGANPSATPEEVRALAEPIVEELVKKGLLSAG [r14_120_JUSTAS]” are 1.47 ± 0.045 kcal/mol, 1.55 ± 0.13 kcal/mol and 1.44 ± 0.026 kcal/mol.
For “SAMKAEVYILVYDKNGKLIAKIPIKAEEVLEDPEKFLETVKTVVEEFSGIGVKLKIYFPSTGKEVEIEASAG [r14_972_TrMRF]”, the “folding stability dG unfold” value in data set [1] amounted to 3.35 ± 0.045 kcal/mol; in data set [2] it was 3.6 ± 0.23 kcal/mol; in data set [3], 4.2 ± 0.65 kcal/mol.
For the sequence “SAMKEGEEYEPVEKKKITIKNKKTNKTIEIEVVRNKKTNKYIVKITTKDGKKIEIVVSKEELEKLLKKLSAG [r14_240_TrROS_Hall]”, the “folding stability dG unfold” value in data set [1] worked out at 3.08 ± 0.17 kcal/mol; in data set [2], 3.01 ± 0.26 kcal/mol; in data set [3], 2.25 ± 0.19 kcal/mol.
Take “SAMKETEIPDPVTGNTYTVIDFDDATVVIKNYPDSLTITIIPPPSNTSTTIPMKPGEEEKVLKELGIPPSAG [r14_4_JUSTAS]”: the “folding stability dG unfold” value was 0.316 ± 0.23 kcal/mol in data set [1], 0.568 ± 0.16 kcal/mol in data set [2] and 0.591 ± 0.087 kcal/mol in data set [3].
On the same counts, the results for “SAMKIEIIEEKEGEIIIKIEATKEEVEELAEELKKKFPGVEVEVEYDKETKKVYIRIKFKKKPSEEELKSAG [r14_600_TrROS_Hall]” are 3.9 ± 0.33 kcal/mol, 3.82 ± 0.31 kcal/mol and 3.05 ± 0.62 kcal/mol.
For “SAMKITDVTVERNPDNGWYEVMVTFEFDNGPVTVKIWMPRDGNMPIDVYDMGNGEPKGEIWIPADQIKFSAG [r14_608_TrROS]”, the figures for the “folding stability dG unfold” value in data set [1], in data set [2] and in data set [3] were 1.35 ± 0.1 kcal/mol, 1.15 ± 0.075 kcal/mol and 0.893 ± 0.022 kcal/mol, respectively.
Regarding “SAMKITIEEVEVKEGDTVTIRIDASEEELENFLKELAEKLGAEVVEVEVKKNENGSLEVTVKVKEVKKPSAG [r14_655_TrROS_Hall]”, the “folding stability dG unfold” value worked out at 0.476 ± 0.13 kcal/mol in data set [1], 1.04 ± 0.17 kcal/mol in data set [2] and 1.2 ± 0.11 kcal/mol in data set [3].
For “SAMKITIEVIKLPDGYYVVRITVYDKNGEKVEERELVFSSLEDLLAALKELFPDQKVTVEIRKVTKEELSAG [r14_964_TrROS_Hall]”, in that order: 4.14 ± 0.23 kcal/mol, 3.77 ± 0.18 kcal/mol and 2.16 ± 0.16 kcal/mol.
On the same counts, the results for “SAMKIVEIVEYDKEKKKIRIKIEVNGKLLEIEIEAESEEEVEEALKKLKEELEFELPDGKKVRITEIEISAG [r14_422_TrROS_Hall]” are 2.08 ± 0.14 kcal/mol, 1.63 ± 0.28 kcal/mol and 0.749 ± 0.15 kcal/mol.
On the same counts, the results for “SAMKKLTEEEIEKLAKELAKEGKVEIKIKVEKKVVKNKNGKKKEVTKVKIEIKAPPEAKKKLEKLKKKLSAG [r14_628_TrROS_Hall]” are 0.992 ± 0.19 kcal/mol, 0.359 ± 0.79 kcal/mol and 0.415 ± 0.34 kcal/mol.
“SAMKKPPKTLTLVIVVKVPEEEMTEEQLEELARELAEALAPPGEKVEVKVEVERLPDGTVVVKIEIKLESAG [r14_389_TrROS_Hall]”: the “folding stability dG unfold” value in data set [1] came to 1.98 ± 0.067 kcal/mol; in data set [2] it was 2.22 ± 0.17 kcal/mol; in data set [3] it was 2.28 ± 0.091 kcal/mol.
On the same counts, the results for “SAMKLTTLSESSDPATGVRYLTVAIPSSQDDLIKEIAEELEKKGVKATILTPNVPAGSSVTIKLEFKGKSAG [r14_354_JUSTAS]” are 0.66 ± 0.16 kcal/mol, 0.475 ± 0.17 kcal/mol and 0.109 ± 0.17 kcal/mol.
For “SAMKLVTLEDGTVIETENLSLEEIKERFGGGSISVSDVPPSPAFRVESEEEREALEKEVGPGFVVVEEGSAG [r14_445_JUSTAS]”, in that order: 0.108 ± 0.11 kcal/mol, 0.414 ± 0.082 kcal/mol and 0.578 ± 0.032 kcal/mol.
On the same counts, the results for “SAMKVTIEPLEDGSTVITLDDGTEITFSAPGSGAPILAKVTPLPNTGVVRVDIYHPEGGKLLAPLVVPLSAG [r14_975_TrMRF]” are 0.579 ± 0.094 kcal/mol, 0.734 ± 0.053 kcal/mol and 0.657 ± 0.034 kcal/mol.
Take “SAMKYLVEVTADLGGPSVRYELDAESIEEAIEKVKEKLKPLFPDAPLKNITLTFHDPSSDETTTVNIVESAG [r14_54_JUSTAS]”: the “folding stability dG unfold” value in data set [1] was 3.54 ± 0.031 kcal/mol; in data set [2], 3.49 ± 0.062 kcal/mol; in data set [3] it was 3.36 ± 0.067 kcal/mol.
For “SAMKYTITVKGDIESVRNFLLDKLDFDIEVSSTPDGTTVITITMDEEKVSELKELLKAHPNFPTTVNKESAG [r14_521_JUSTAS]”, in that order: 4.12 ± 0.044 kcal/mol, 3.83 ± 0.11 kcal/mol and 2.75 ± 0.086 kcal/mol.
On the same counts, the results for “SAMLPEGERKPFLVKVKIETPEGTPEFEAPVITEPPQKIHVSIDFDIPEGEHKIKIEFFGPKLEFEFDISAG [r14_280_TrMRF]” are 2.42 ± 0.12 kcal/mol, 2.29 ± 0.44 kcal/mol and 1.87 ± 0.11 kcal/mol.
